Measured values as given in paper PMC3561992.

T1: AtCyp59 full-length (Arabidopsis thaliana, UniProt Q6Q151 1-506)
T1 sequence: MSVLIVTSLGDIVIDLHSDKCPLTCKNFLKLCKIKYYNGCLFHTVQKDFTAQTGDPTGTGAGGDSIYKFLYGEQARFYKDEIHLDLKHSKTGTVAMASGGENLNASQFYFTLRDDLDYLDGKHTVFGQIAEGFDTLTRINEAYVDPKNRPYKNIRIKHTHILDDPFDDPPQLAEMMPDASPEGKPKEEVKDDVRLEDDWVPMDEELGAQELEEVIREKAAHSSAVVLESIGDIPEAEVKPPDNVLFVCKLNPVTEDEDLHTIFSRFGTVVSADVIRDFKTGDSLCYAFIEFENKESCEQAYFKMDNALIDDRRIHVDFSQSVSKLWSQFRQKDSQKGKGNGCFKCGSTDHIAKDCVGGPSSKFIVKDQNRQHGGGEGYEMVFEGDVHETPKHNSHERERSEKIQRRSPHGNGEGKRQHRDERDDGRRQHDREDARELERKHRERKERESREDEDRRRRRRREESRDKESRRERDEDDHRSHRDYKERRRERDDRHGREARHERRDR


Each binder was assayed against T1, AtCyp59 full-length (assay: EMSA).

Kd, 120 ± 25 nM:
GCUGCCG (ssRNA)
GUAGCCG (ssRNA)
GAUGCCA (ssRNA)
GACGCCA (ssRNA)
GUCGCCG (ssRNA)
GUCGCCA (ssRNA)
GAUGCCG (ssRNA)
GGAGCCA (ssRNA)
GCCGCCG (ssRNA)
GUAGCCA (ssRNA)
GCGGCCG (ssRNA)
GCGGCCA (ssRNA)
GUGGCCG (ssRNA)
GUUGCCG (ssRNA)
GGUGCCG (ssRNA)
GCCGCCA (ssRNA)
GUGGCCA (ssRNA)
